Measured values taken from patent US20220064281A1 (Ablynx, published 2022).

Columns and labels:
human TNFα [1] = biological target: T1, human TNFα (human, UniProt P01375 77-233); experiment: cell-based or functional assay
cyno TNFα [2] = biological target: T2, cyno TNFα (cynomolgus monkey, UniProt P79337 77-233); experiment: cell-based or functional assay
cyno IL-23 [3] = biological target: cyno IL-23 (cynomolgus monkey); experiment: cell-based or functional assay
human serum albumin = biological target: T3, human serum albumin (human, UniProt P02768 25-609); experiment: Gyrolab in-solution affinity, 2 h incubation
T3 construct: also called HSA; SA (human)
T3 sequence (P02768 25-609 limits assumed): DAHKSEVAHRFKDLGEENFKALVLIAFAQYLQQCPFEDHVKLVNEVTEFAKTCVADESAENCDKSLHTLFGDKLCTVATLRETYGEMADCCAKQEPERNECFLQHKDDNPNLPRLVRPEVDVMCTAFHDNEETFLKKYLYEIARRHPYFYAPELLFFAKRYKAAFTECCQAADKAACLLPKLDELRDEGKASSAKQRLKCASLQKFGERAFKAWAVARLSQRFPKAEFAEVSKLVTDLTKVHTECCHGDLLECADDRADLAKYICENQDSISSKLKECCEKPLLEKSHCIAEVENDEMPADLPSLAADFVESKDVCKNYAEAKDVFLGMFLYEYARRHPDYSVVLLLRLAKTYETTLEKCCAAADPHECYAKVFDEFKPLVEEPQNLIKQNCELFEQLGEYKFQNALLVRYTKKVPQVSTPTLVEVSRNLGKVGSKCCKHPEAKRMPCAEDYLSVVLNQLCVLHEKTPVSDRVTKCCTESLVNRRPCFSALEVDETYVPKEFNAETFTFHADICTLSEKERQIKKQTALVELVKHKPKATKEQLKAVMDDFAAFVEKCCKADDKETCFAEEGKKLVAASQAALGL
Description: (§1) Biotinylated human TNFα/IL-23/serum albumin was captured in the microstructures of a Gyrolab Bioaffy 1000 CD, which contains columns of beads and is used as a molecular probe to capture free F027500069 from the equilibrated solution. The mixture of TNFα/IL-23/serum albumin and F027500069 (containing free TNFα/IL-23/serum albumin, free F027500069 and TNFα/IL-23/serum albumin—F027500069 complexes) was allowed to flow through the beads, and a small percentage of free F027500069 was captured, which is proportional to the free ISVD concentration. A fluorescently labelled anti-VHH antibody was then injected to label any captured F027500069 and after rinsing away excess of fluorescent probe, the change in fluorescence was determined. Fitting of the dilution series was done using Gyrolab Analysis software, where KD⁻ and receptor-controlled curves were analyzed to determine the KD value.

cyno serum albumin = biological target: T4, cyno serum albumin (cynomolgus monkey, UniProt A2V9Z4 25-608); experiment: Gyrolab in-solution affinity, 2 h incubation
T4 construct: also called SA (cynomolgus monkey)
T4 sequence (A2V9Z4 25-608 limits assumed): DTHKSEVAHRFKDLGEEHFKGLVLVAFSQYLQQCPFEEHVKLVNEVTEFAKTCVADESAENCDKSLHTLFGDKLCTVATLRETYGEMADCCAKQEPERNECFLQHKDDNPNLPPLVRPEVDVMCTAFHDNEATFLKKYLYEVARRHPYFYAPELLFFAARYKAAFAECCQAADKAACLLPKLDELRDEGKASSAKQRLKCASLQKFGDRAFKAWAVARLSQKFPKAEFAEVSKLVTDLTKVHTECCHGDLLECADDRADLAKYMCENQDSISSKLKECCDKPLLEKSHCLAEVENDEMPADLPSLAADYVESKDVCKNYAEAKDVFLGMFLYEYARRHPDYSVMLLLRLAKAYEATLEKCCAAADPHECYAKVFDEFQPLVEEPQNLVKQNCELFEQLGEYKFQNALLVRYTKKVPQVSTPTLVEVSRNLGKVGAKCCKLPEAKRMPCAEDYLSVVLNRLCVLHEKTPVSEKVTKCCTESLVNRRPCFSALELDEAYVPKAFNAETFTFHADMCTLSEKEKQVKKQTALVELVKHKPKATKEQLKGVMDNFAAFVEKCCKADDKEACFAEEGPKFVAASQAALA
Description: as §1

human TNFα [4] = biological target: T1, human TNFα; experiment: Gyrolab in-solution affinity, 24 h incubation
Description: as §1

cyno TNFα [5] = biological target: T2, cyno TNFα; experiment: Gyrolab in-solution affinity, 24 h incubation
Description: as §1

cyno IL-23 [6] = biological target: T5, cyno IL-23 (cynomolgus monkey); experiment: Gyrolab in-solution affinity, 24 h incubation
T5 construct: also called recombinant IL-23 from cynomolgus monkey
Description: as §1

human TNFα [7] = biological target: T1, human TNFα; experiment: Gyrolab in-solution affinity, 48 h incubation
Description: as §1

cyno TNFα [8] = biological target: T2, cyno TNFα; experiment: Gyrolab in-solution affinity, 48 h incubation
Description: as §1

cyno IL-23 [9] = biological target: T5, cyno IL-23; experiment: Gyrolab in-solution affinity, 48 h incubation
Description: as §1

human FASL = biological target: T6, human FASL (human, UniProt P48023 134-281, limits assumed); experiment: SPR, target immobilized by amine coupling, F027500069 injected
T6 construct: also called huFASL
T6 sequence (looked up): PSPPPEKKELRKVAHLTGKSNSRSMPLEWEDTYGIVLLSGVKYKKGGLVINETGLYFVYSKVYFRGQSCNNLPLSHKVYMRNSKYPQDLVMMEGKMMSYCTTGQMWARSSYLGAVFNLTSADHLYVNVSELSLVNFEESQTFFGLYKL
Description: (§2) Absence of binding to TNFα and IL-23 related human cytokines was assessed via SPR. hIL-12 was tested, as it shares the p40 subunit with IL-23. TNF superfamily members human FASL, TNFβ, LIGHT, TL-1A, RANKL were tested as related cytokines for TNFα.
(§3) Next, 1 μM of F027500069 was injected for 2 minutes and allowed to dissociate for 900s at a flow rate of 45 μL/min. As running buffer 1×HBS-EP+ pH7.4 was used. As positive controls, 0.2 μM α-huIL-12 Ab and 0.5 μM α-huFASL Ab, 0.5 μM α-huTNFβ Ab, 0.5 μM α-huLIGHT Ab, 0.5 μM α-huTL-1A Ab and 0.5 μM α-huRANKL VHH were injected. Interaction between F027500069 and the positive controls with the immobilized targets was measured by detection of increases in […] which occurs as a result of mass changes on the chip upon binding.

human TNFβ = biological target: T7, human TNFβ (human, UniProt P01374 35-205); experiment: as above
T7 construct: also called huTNFβ
T7 sequence (looked up): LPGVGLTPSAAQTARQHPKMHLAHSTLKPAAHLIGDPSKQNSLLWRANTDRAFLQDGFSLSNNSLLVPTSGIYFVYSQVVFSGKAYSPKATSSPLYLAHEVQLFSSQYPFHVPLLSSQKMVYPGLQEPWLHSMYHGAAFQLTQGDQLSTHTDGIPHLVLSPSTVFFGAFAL
Description: as §2, §3

human LIGHT = biological target: T8, human LIGHT (human, UniProt O43557 74-240, limits assumed); experiment: as above
T8 construct: also called huLIGHT
T8 sequence (O43557 74-240 limits assumed): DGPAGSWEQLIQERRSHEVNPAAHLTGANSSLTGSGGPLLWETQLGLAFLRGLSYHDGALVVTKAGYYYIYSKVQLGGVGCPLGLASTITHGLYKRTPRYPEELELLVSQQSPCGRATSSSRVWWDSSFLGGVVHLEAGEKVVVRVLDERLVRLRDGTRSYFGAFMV
Description: as §2, §3

human TL-1A = biological target: T9, human TL-1A (human, UniProt O95150 72-251); experiment: as above
T9 construct: also called huTL-1A
T9 sequence (looked up): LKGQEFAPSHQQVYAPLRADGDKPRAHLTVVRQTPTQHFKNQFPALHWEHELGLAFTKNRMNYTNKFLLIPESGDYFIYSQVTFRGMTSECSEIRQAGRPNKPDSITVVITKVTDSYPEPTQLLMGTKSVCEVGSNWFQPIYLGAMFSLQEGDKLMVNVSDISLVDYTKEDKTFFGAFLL
Description: as §2, §3

human RANKL = biological target: T10, human RANKL (human, UniProt O14788 140-317, limits assumed); experiment: as above
T10 construct: also called huRANKL
T10 sequence (looked up): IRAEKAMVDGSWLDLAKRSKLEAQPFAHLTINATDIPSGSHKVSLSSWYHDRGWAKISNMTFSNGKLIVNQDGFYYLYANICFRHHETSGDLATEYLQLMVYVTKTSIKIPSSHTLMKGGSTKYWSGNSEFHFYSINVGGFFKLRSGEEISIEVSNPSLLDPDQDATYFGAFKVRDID
Description: as §2, §3

human IL-12 = biological target: T11, human IL-12 (human, UniProt P29459 23-219; P29460 23-328); experiment: as above
T11 construct: also called hIL-12
T11 sequence (looked up) 1: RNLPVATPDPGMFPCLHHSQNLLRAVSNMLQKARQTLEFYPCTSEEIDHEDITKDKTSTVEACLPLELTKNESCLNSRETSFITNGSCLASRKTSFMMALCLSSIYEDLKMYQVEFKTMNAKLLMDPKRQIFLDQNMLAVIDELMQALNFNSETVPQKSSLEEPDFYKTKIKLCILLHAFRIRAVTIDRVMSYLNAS
T11 sequence (looked up) 2: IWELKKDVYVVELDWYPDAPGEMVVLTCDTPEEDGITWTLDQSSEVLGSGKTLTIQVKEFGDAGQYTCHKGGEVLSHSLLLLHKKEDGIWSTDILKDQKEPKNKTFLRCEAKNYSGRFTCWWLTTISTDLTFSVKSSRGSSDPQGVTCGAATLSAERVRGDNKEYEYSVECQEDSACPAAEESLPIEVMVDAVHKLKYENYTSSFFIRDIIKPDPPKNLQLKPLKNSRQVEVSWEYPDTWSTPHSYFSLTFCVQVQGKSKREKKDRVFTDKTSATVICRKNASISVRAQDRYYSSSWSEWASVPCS
Description: as §2, §3

human membrane TNFα [10] = biological target: T12, human membrane TNFα (human, UniProt P01375 1-233); experiment: flow cytometry, human membrane TNFα expressing HEK293H cells, fixed cells
T12 construct: whole, on cells; also called membrane expressed TNFα
T12 sequence (P01375 whole entry): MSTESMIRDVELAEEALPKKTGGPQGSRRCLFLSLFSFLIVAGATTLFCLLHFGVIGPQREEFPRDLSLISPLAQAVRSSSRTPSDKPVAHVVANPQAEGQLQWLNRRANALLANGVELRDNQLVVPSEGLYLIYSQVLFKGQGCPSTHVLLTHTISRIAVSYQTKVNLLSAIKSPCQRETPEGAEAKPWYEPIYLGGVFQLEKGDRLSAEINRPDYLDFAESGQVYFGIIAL
Description: (§4) Briefly, cells were seeded at a density of 1×10⁴ cells/well and incubated with a dilution series of F027500069 starting from 100 nM up to 0.5 pM, for 1 hour at 4° C. In parallel, cells were fixed with 4% paraformaldehyde and 0.1% Glutaraldehyde in PBS, before seeding (to increase detection of membrane bound TNFα) and incubated with a dilution series of ISVD for 1 hour at 4° C. or for 24 hours at room temperature. Cells were washed 3 times and subsequently incubated with an anti-VHH mAb for 30 min at 4° C., washed again, and incubated for 30 min at 4° C. with a goat anti-mouse PE labelled antibody. Samples were washed and resuspended in FACS Buffer (D-PBS with 10% FBS and 0.05% sodium azide supplemented with 5 nM TOPRO3). Cell suspensions were then analysed on an iQuescreener. EC50 values were calculated using GraphPad Prism.

human membrane TNFα [11] = biological target: T12, human membrane TNFα; experiment: flow cytometry, human membrane TNFα expressing HEK293H cells, fixed cells, 1 h at 4 °C
Description: as §4

human membrane TNFα [12] = biological target: T12, human membrane TNFα; experiment: flow cytometry, human membrane TNFα expressing HEK293H cells, viable cells, 1 h at 4 °C
Description: as §4

human membrane TNFα [13] = biological target: T12, human membrane TNFα; experiment: flow cytometry, human membrane TNFα expressing HEK293H cells, fixed cells, 24 h at room temperature
Description: as §4

OX40L = biological target: T13, OX40L (human, UniProt P23510); experiment: SPR (ProteOn XPR36): 100 nM F027500069 captured on immobilized HSA, then 100 nM hOX40L injected for 2 min, alone or mixed with 100 nM IL-23 or TNFα, followed by 600 s dissociation
T13 construct: soluble recombinant protein; also called hOX40L
T13 sequence (ligand chain, looked up): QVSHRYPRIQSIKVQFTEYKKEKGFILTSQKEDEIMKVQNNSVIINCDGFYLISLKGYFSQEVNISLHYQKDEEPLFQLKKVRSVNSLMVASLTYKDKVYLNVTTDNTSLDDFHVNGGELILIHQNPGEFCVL
Description: A ProteOn XPR36 instalment was used to determine whether F027500069 can bind simultaneously to hTNFα and hIL-23. To this end HSA was immobilized on a GLC ProteOn Sensor chip via amine coupling. 100 nM of F027500069 was injected for 2 min at 10 μl/min over the HSA surface in order to capture the ISVD via the ALB23002 building block. Subsequently either 100 nM of hIL-23, hTNFα or hOX40L were injected or mixtures of 100 nM IL-23+100 nM TNFα, 100 nM IL-23+100 nM OX40L or 100 nM TNFα+[…], at a flow rate of 10 μl/min for 2 min followed by a subsequent 600 seconds dissociation step. The HSA surfaces were regenerated with a 2-minute injection of HCl (100 mM) at 45 μl/min.

T2 sequence (P79337 77-233 limits assumed): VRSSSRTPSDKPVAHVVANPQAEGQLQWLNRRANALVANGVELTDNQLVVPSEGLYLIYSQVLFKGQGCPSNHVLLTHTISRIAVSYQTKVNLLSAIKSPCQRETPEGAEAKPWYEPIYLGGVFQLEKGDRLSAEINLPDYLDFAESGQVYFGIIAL
T1 sequence (P01375 77-233 limits assumed): as the sequence (P79337 77-233 limits assumed) above, with V37L, T44R, N72T, L138R counted along it

B1: F027500069 (VHH)
chain: DVQLVESGGGVVQPGGSLRLSCTASGFTFSTADMGWFRQAPGKGREFVARISGIDGTTYYDEPVKGRFTISRDNSKNTVYLQMNSLRPEDTALYYCRSPRYADQWSAYDYWGQGTLVTVSSGGGGSGGGSEVQLVESGGGVVQPGGSLRLSCAASGRIFSLPASGNIFNLLTIAWYRQAPGKQRELVATIESGSRTNYADSVKGRFTISRDNSKKTVYLQMNSLRPEDTALYYCQTSGSGSPNFWGQGTLVTVSSGGGGSGGGSEVQLVESGGGVVQPGGSLRLSCAASGFTFRSFGMSWVRQAPGKGPEWVSSISGSGSDTLYADSVKGRFTISRDNSKNTLYLQMNSLRPEDTALYYCTIGGSLSRSSQGTLVTVSSGGGGSGGGSEVQLVESGGGVVQPGGSLRLSCAASGRTLSSYAMGWFRQAPGKEREFVARISQGGTAIYYADSVKGRFTISRDNSKNTVYLQMNSLRPEDTALYYCAKDPSPYYRGSAYLLSGSYDSWGQGTLVKVSSA
notes: produced in Pichia pastoris; also called F02750069; ISVD construct F027500069
NFkB assay IC50 (M); Glo Response HEK293_NFkB-NLucP reporter assay, 25 pM human TNFα (human TNFα [1]): 3.88e-11 M | NFkB assay IC50 (M); Glo Response HEK293_NFkB-NLucP reporter assay, 70 pM cyno TNFα (cyno TNFα [2]): 1.28e-10 M | IL-23 reporter assay IC50 (M); Glo Response HEK293_human IL-23R/IL-12Rb1-Luc2P, 40 pM cyno IL-23 (cyno IL-23 [3]): 3.23e-10 M | Mouse splenocyte assay IC50 (M); IL-23-induced mIL-22 production, 36 pM cyno IL-23 (cyno IL-23 [3]): 3.07e-11 M | Kd (human serum albumin): 5.9 nM | Kd (cyno serum albumin): 10.8 nM | Kd (human TNFα [4]): 3.23 pM | Kd (cyno TNFα [5]): 0.0275 nM | Kd (cyno IL-23 [6]): 0.0335 nM | Kd (human TNFα [7]): 3.39 pM | Kd (cyno TNFα [8]): 0.0186 nM | Kd (cyno IL-23 [9]): 0.0512 nM | binding result (human FASL): no binding (tested: 1 µM) | binding result (human TNFβ): no binding (tested: 1 µM) | binding result (human LIGHT): no binding (tested: 1 µM) | binding result (human TL-1A): no binding (tested: 1 µM) | binding result (human RANKL): no binding (tested: 1 µM) | binding result (human IL-12): no binding (tested: 1 µM) | fold improvement of the EC50 (24 hours against 1 hour incubation) (human membrane TNFα [10]): 6.6 fold | EC50 (human membrane TNFα [11]): 0.811 nM | EC50 (human membrane TNFα [12]): 0.693 nM | EC50 (human membrane TNFα [13]): 0.122 nM | binding result (OX40L): no binding (tested: 100 nM)
